In US8106168B2, “Metalloproteinase binding proteins” (Dyax Corp., priority 2005, dated 2012):

B1: M0040-C10: Fab that binds human MMP-14; DNA LV SEQ ID NO: 92, HV SEQ ID NO: 93 (antibody, V domains shown)
VL: QDIQMTQSPATLSASVGDRVTITCRASQTISTYLNWYQHKPGKAPELLIYAASSLQSGVPSRFSGSGSGTDFTLRISSLQPEDFATYYCQQSYTTPWTFGQGTKVEIK
VH: EVQLLESGGGLVQPGGSLRLSCAASGFTFSRYMMVWVRQAPGKGLEWVSSIVSSGGKTWYADSVKGRFTISRDNSKNTLYLQMNSLRAEDTAMYYCARWDWGPFDYWGQGTLVTVSS
modifications: Synthetically generated oligonucleotide
B2: M0039-D02: Fab that binds human MMP-14; DNA LV SEQ ID NO: 70, HV SEQ ID NO: 71 (protein)
chain 1: QDIQMTQSPSSLSASVGDRVTITCRASQSISSYLNWYQQKPGKAPKLLIYDASNLETGVPSRFSGSGSGTDFTFTISSLQPEDIATYYCQQFDDLPLTFAGGTKVELKRT
chain 2: EVQLLESGGGLVQPGGSLRLSCAASGFTFSLYVMIWVRQAPGKGLEWVSGIYSSGGDTYYADSVKGRFTISRDNSKNTLYLQMNSLRAEDTAVYYCARGQQLGGGAFDIWGQGTMVTVSS
modifications: Synthetically generated oligonucleotide
B3: M0030-D08: Fab that binds human MMP-14; DNA LV SEQ ID NO: 8, HV SEQ ID NO: 9 (antibody, V domains shown)
VH: EVQLLESGGGLVQPGGSLRLSCAASGFTFSIYQMYWVRQAPGKGLEWVSSIVPSGGLTKYADSVKGRFTISRDNSKNTLYLQMNSLRAEDTAVYYCARERLRYFDWSDRVGESGDYWGQGTLVTVSS
VL: QDIQMTQSPSSLSASVGDRVTMTCRAGQNIKSYLNWYQQKPGKAPQVLIYAASTLQSGVSSRFRGSGSGTHFTLTISDLQPGDSATYYCQQSFSTPRSFGQGTSWRS
B4: M0039-G07: Fab that binds human MMP-14; DNA LV SEQ ID NO: 76, HV SEQ ID NO: 77 (antibody, V domains shown)
VL: QDIQMTQSPGTLSLSPGERATLSCRASQSVNSRFLAWYQQKPGQAPRLLIYSTSTRATGIPDRFSGSGSGTDFTLTISRLEPEDFAVYYCQRYGSSPTWTFGQGTKVEIK
VH: EVQLLESGGGLVQPGGSLRLSCAASGFTFSRYVMDWVRQAPGKGLEWVSRISPSGGHTDYADSVKGRFTISRDNSKNTLYLQMNSLRAEDTAVYYCARETVRGVYFDYWGQGTLVTVSS
modifications: Synthetically generated oligonucleotide
B5: M0039-G05: Fab that binds human MMP-14; DNA LV SEQ ID NO: 74, HV SEQ ID NO: 75 (antibody, V domains shown)
VL: QDIQMTQSPSFLSASIGDRVTITCRASQGINTFLAWYQQKPGIAPKLLIYAASTLQSGVPSRFSGSGSGTEFTLTISSLQPEDFATYYCQQLNGYRSFGQGTRLEMK
VH: EVQLLESGGGLVQPGGSLRLSCAASGFTFSNYEMGWVRQAPGKGLEWVSWIYSSGGYTSYADSVKGRFTISRDNSKNTLYLQMNSLRAEDTATYYCARDPYYYDSSGYYYYYYYYMDVWGKGTTVTVSS
modifications: Synthetically generated oligonucleotide
B6: M0038-H06: Fab that binds human MMP-14; DNA LV SEQ ID NO: 66, HV SEQ ID NO: 67 (antibody, V domains shown)
VL: QDIQMTQSPGTLSLSPGEGATLSCRASQIINPFYVAWYQQRPGQAPRLLIYASSRRAGGIPDRFSGSASGTDFTLTISRLEPEDFAVYYCQYFYNSMWTFGQGAKVEIR
VH: EVQLLESGGGLVQPGGSLRLSCAASGFTFSWYNMTWVRQAPGKGLEWVSRISPSGGDTFYADSVKGRFTISRDNSKNTLYLQMNSLRAEDTAVYYCARAAIAPRPYGMDVWGQGTTVTVSS
modifications: Synthetically generated oligonucleotide
B7: M0040-B06: Fab that binds human MMP-14; DNA LV SEQ ID NO: 88, HV SEQ ID NO: 89 (antibody, V domains shown)
VL: QYELTQPPSASGTPGQRVTISCSGSSSNIGRNYVYWYQQVPGTAPKLLIYSNNQRPSGVPDRFSGSKSGTSASLVISGLRSEDEADYYCAAWDASLRGVFGGGTKLTVL
VH: EVQLLESGGGLVQPGGSLRLSCAASGFTFSVYPMVWVRQAPGKGLEWVSYISPSGGFTFYADSVKGRFTISRDNSKNTLYLQMNSLRAEDTAVYYCARVPGGSRQDFDIWGQGTMVTVSS
modifications: Synthetically generated oligonucleotide
B8: M0038-E12: Fab that binds human MMP-14; DNA LV SEQ ID NO: 60, HV SEQ ID NO: 61 (antibody, V domains shown)
VL: QDIQMTQSPSSLSASVGDSVTITCRASQNINSYLNWYQQKPGKAPKLLIYVASNLQRGVPSRFGGSGSGTDFTLTITSLQPEDFATYSCQQTYSTPLTFGGGTKVEIK
VH: EVQLLESGGGLVQPGGSLRLSCAASGFTFSKYWMMWVRQAPGKGLEWVSVIYPSGGITYYADSVKGRFTISRDNSKNTLYLQMNSLRAEDTAVYYCARLPSWGFDALDIWGQGTMVTVSS
modifications: Synthetically generated oligonucleotide
B9: M0040-A03: Fab that binds human MMP-14; DNA LV SEQ ID NO: 80, HV SEQ ID NO: 81 (antibody, V domains shown)
VL: QDIQMTQSPSFVSASVGDRVTISCRASHNINTWLAWYQQKPGKAPNLLIYSASNLQGGVPSRFSGSGSGTDFTLTISSLQPGDFATYYCQQASSFPITFGQGTRLEIK
VH: EVQLLESGGGLVQPGGSLRLSCAASGFTFSNYMMIWVRQAPGKGLEWVSWISPSGGYTFYADSVKGRFTISRDNSKNTLYLQMNSLRAEDTAVYYCARGYYDILTGMVGGGAFDIWGQGTTVTVSS
modifications: Synthetically generated oligonucleotide
B10: M0039-D10: Fab that binds human MMP-14; DNA LV SEQ ID NO: 72, HV SEQ ID NO: 73 (antibody, V domains shown)
VL: QDIQMTQSPDTVSFSPGERASLSCRASQSVRSDLAWYQQKPGQAPRLLIYGASNRATGIPVRFSGSGSGTDFTLTISRLEPEDFAVYYCQQYGSSPLFTFGPGTKVDIK
VH: EVQLLESGGGLVQPGGSLRLSCAASGFTFSMYNMAWVRQAPGKGLEWVSWIYSSGGLTLYADSVKGRFTISRDNSKNTLYLQMNSLRAEDTAVYYCAKGSNTYYFDASGLGAFNMWGQGTMVTVSS
modifications: Synthetically generated oligonucleotide
B11: M0040-D08: Fab that binds human MMP-14; DNA LV SEQ ID NO: 94, HV SEQ ID NO: 95 (antibody, V domains shown)
VL: QSALTQSPSASASLGSSVKLTCTLASEHSGYIIAWHQQQPGKAPRFLMKLDGTGNFNKGSGVPDRFSGYSSGADRYLTISNLQSEDEADYYCETWDSTTLWVFGGGTKLTVL
VH: EVQLLESGGGLVQPGGSLRLSCAASGFTFSHYGMTWVRQAPGKGLEWVSSIVPSGGYTAYADSVKGRFTISRDNSKNTLYLQMNSLRAEDTAVYYCTTGLSSSGTRWFDAWGQGTLVTVSS
modifications: Synthetically generated oligonucleotide
B12: M0039-B07: Fab that binds human MMP-14; DNA LV SEQ ID NO: 68, HV SEQ ID NO: 69 (antibody, V domains shown)
VL: QDIQMTQSPLSLSASVGDRVTITCRASQGISNYLAWYQQKPGKVPKLLIYAASTLQSGVPSRFSGSGSGTDFTLTISSLQPEDVATYYCQKYNSARLTFGGGTKVEIK
VH: EVQLLESGGGLVQPGGSLRLSCAASGFTFSLYPMLWVRQAPGKGLEWVSGISPSGGQTFYADSVKGRFTISRDNSKNTLYLQMNSLRAEDTAVYYCARMAYYSGYFDLWGRGTLVTVSS
modifications: Synthetically generated oligonucleotide

Target: MMP-14 (Homo sapiens, UniProt P50281)
Experiment: Selection and phage ELISA screening of anti-MMP-14 Fabs
Assay type: binding
Conditions: Fab from FAB310 phage display library
Protocol: Strategy I: A 100-fold excess of the FAB310 library (e.g., an amount of the library that should contain 100 copies of each library member) was depleted of streptavidin-binding antibodies by incubating the library with 200 μL of streptavidin beads for 1 hour at room temperature (RT) with rotation. 500 nM of biotinylated MMP-14 was coupled to streptavidin beads by incubation with 100 μL of streptavidin beads. The MMP-14 beads were then incubated with the streptavidin-depleted library for 1 hour at RT with rotation. The beads were then rinsed three times with 2% MTRIS/0.1% Tween, transferred to a fresh tube and washed an additional three times with 2% MTRIS/0.1% Tween, and transferred to a fresh tube and washed a final time with Round 1 TRIS buffer (50 mM TRIS; 50 mM CaCl2; 150 mM NaCl, pH 7.5).
MMP-14 binding antibodies were eluted from the beads by re-suspension in 1 mL 2% MTRIS containing 2.5 μM TIMP-2 and incubation for 1 hour at RT with rotation. The beads were then washed three times with 2% MTRIS/0.1% Tween, transferred to a fresh tube and washed three times with TRIS/0.1% Tween, and transferred to a fresh tube and washed a final time with TRIS. 1 mL output was used for infection of 9 mL TG1 bacteria (grown to OD600=0.5). The beads were further eluted by suspension in 1 mL 100 mM TEA for 10 minutes. The supernatant was neutralized with 500 μl TRIS/HCl pH 7.5. 1 mL of the second elution was used for infection of 9 mL TG1 bacteria (grown to OD600=0.5).
Two additional rounds of selection were carried out under the same conditions as the first round, except that the streptavidin beads were loaded with 100 nM biotinylated MMP-14 and the number of washes were doubled (6 times with 2% MTRIS/0.1% Tween, 6 times with TRIS/0.1% Tween and 2 times with TRIS), and Round 2/3 Tris buffer (50 mM TRIS; 5 mM CaCl2; 150 mM NaCl pH=7.5) was used for incubation and wash.
TIMP-2 was coupled to carboxylic beads, then complexed with a combination of biotinylated MMP-14 (500 nM each). The complexed beads were incubated with a 100 fold excess of FAB310 library that had been previously depleted by incubation with streptavidin beads and carboxylic beads. Elution/washing was carried out as for Strategy I.
Two additional rounds of selection were carried out, essentially as described for Strategy I, except that only 100 nM of each of MMP-14 were used in the bead complexes.
384-well plates were coated with biotinylated BSA (2 μg/ml in 50 mM TRIS; 5 mM CaCl2; 150 mM NaCl, pH 7.5), then washed 3 times with 50 mM TRIS; 5 mM CaCl2; 150 mM NaCl, pH 7.5; 0.1% Tween. Streptavidin was captured on the coated plates by incubation with 10 μg/mL streptavidin in 50 mM TRIS; 5 mM CaCl2; 150 mM NaCl pH 7.5; 0.5% Gelatin, followed by a wash with 50 mM TRIS; 5 mM CaCl2; 150 mM NaCl pH=7.5; 0.1% Tween. On the day the assay was to be performed, biotinylated MMP-14 (1 μg/ml) was captured in 50 mM TRIS; 5 mM CaCl2; 150 mM NaCl, pH 7.5.
95 clones were picked from each of Round 2 and Round 3 of each selection strategy, producing 12 masterplates. ELISA was run on the MiniTrak-5 deck according to SOP.

Molecule | bind to human MMP-14
B1 | bind to human MMP-14
B2 | bind to human MMP-14
B3 | bind to human MMP-14
B4 | bind to human MMP-14
B5 | bind to human MMP-14
B6 | bind to human MMP-14
B7 | bind to human MMP-14
B8 | bind to human MMP-14
B9 | bind to human MMP-14
B10 | bind to human MMP-14
B11 | bind to human MMP-14
B12 | bind to human MMP-14
